{"source": "patent US20250340902A1", "about": "“GENE THERAPY FOR BVES-RELATED DISORDERS” (OHIO STATE INNOVATION FOUNDATION, priority 2022, published 2025)", "test_in_all_cases": "anti-HA co-IP from muscle, MS; CTRL 0", "key": {"[1]": {"target": "von Willebrand factor A domain-containing protein 8 (Mus musculus) (UniProt Q8CC88)"}, "[2]": {"target": "Eukaryotic translation initiation factor 3 subunit H (Mus musculus) (UniProt Q91WK2)"}, "[3]": {"target": "NADH dehydrogenase [ubiquinone] iron-sulfur protein 3, mitochondrial (Mus musculus) (UniProt Q9DCT2)"}, "[4]": {"target": "Fibulin-1 (Mus musculus) (UniProt Q08879)", "sequence (Q08879 30-705 limits assumed)": "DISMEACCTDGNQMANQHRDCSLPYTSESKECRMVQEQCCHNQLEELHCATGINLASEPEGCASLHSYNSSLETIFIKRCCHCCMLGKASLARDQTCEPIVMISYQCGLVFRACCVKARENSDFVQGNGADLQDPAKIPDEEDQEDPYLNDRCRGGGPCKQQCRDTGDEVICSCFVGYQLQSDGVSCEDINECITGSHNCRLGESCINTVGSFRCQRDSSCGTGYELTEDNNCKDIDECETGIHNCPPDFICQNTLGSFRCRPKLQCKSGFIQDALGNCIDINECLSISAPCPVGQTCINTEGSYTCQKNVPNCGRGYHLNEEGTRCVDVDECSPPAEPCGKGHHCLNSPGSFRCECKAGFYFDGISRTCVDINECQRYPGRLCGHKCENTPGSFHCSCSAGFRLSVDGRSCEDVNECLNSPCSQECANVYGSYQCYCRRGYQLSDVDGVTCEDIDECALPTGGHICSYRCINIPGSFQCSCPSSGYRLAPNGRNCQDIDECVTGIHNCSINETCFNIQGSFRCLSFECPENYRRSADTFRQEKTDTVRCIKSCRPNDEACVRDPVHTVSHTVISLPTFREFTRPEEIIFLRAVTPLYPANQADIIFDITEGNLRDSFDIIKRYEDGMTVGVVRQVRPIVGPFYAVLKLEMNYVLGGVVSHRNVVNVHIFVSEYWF"}, "[5]": {"target": "Microtubule-associated protein 4 (Mus musculus) (UniProt P27546)"}, "[6]": {"target": "Coatomer subunit delta (Mus musculus) (UniProt Q5XJY5)", "sequence (Q5XJY5 whole entry, stated change not applied)": "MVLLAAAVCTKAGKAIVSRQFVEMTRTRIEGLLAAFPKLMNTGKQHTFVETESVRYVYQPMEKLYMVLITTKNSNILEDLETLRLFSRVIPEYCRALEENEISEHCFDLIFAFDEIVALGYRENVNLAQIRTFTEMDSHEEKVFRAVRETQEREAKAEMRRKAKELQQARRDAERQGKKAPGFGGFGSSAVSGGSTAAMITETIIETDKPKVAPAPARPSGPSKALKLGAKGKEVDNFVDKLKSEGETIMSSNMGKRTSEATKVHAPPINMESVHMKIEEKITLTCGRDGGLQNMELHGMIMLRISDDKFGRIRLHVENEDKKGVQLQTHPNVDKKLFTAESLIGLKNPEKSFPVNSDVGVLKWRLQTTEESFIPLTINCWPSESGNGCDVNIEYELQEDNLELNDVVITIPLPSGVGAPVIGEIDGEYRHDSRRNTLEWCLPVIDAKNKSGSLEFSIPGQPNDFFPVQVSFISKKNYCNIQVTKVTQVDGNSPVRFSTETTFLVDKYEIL"}, "[7]": {"target": "Flavin reductase (NADPH) (Mus musculus) (UniProt Q923D2)", "sequence (Q923D2 whole entry)": "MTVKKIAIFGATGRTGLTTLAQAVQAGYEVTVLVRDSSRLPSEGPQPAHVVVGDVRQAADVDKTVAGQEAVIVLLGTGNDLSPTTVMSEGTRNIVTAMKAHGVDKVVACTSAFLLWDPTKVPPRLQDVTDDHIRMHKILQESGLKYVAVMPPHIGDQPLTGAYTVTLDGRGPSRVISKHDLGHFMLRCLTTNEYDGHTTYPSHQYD"}, "[8]": {"target": "Heterogeneous nuclear ribonucleoprotein M (Mus musculus) (UniProt Q9D0E1)"}, "[9]": {"target": "Ankyrin-1 (Mus musculus) (UniProt Q02357)"}, "[10]": {"target": "GTP-binding protein SAR1b (Mus musculus) (UniProt Q9CQC9)"}, "[11]": {"target": "Spectrin alpha chain, erythrocytic 1 (Mus musculus) (UniProt P08032)"}, "[12]": {"target": "Delta-sarcoglycan (Mus musculus) (UniProt P82347)", "sequence (P82347 whole entry, stated change not applied)": "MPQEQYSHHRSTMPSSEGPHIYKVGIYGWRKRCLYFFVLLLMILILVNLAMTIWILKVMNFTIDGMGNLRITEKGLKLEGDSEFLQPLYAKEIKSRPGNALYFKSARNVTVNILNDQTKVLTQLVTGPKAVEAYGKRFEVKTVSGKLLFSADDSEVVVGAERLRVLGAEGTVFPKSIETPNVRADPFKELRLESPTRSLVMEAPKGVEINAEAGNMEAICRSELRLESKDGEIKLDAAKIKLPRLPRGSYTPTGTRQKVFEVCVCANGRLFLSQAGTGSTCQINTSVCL"}, "[13]": {"target": "Cell cycle progression protein 1 (Mus musculus) (UniProt Q640L3)"}, "[14]": {"target": "Eukaryotic initiation factor 4A-III (Mus musculus) (UniProt Q91VC3)"}, "[15]": {"target": "Patatin-like phospholipase domain-containing protein 7 (Mus musculus) (UniProt A2AJ88)"}, "[16]": {"target": "Glutathione S-transferase LANCL1 (Mus musculus) (UniProt O89112)"}, "[17]": {"target": "Voltage-dependent L-type calcium channel subunit alpha-1s (Mus musculus) (UniProt Q02789)"}, "[18]": {"target": "Cullin-1 (Mus musculus) (UniProt Q9WTX6)"}, "[19]": {"target": "Exosome complex exonuclease RRP44 (Mus musculus) (UniProt Q9CSH3)", "sequence (Q9CSH3 whole entry, one chain of several)": "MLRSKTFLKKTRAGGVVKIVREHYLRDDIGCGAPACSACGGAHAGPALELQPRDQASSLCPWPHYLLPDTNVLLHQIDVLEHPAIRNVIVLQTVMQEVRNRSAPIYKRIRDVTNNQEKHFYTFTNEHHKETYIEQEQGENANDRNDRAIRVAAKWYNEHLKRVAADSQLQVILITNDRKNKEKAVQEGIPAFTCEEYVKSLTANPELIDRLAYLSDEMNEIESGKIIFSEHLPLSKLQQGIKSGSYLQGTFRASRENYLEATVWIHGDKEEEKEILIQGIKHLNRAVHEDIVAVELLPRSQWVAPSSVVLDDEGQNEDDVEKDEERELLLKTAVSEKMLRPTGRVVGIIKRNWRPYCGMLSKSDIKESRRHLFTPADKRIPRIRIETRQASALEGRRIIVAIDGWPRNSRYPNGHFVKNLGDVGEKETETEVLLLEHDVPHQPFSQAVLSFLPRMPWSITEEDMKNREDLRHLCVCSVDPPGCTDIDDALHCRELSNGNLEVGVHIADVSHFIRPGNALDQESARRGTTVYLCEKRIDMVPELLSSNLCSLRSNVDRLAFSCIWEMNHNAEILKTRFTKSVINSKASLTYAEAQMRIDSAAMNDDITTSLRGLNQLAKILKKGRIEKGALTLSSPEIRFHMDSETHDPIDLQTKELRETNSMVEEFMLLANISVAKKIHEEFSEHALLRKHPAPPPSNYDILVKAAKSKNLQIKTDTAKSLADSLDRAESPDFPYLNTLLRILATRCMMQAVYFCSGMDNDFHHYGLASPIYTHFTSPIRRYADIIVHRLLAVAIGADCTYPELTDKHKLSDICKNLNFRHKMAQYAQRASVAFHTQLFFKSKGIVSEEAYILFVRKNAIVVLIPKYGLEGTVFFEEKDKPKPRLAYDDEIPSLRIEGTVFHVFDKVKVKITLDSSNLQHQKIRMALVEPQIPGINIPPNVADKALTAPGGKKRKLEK"}, "[20]": {"target": "Haloacid dehalogenase-like hydrolase domain-containing protein 2 (Mus musculus) (UniProt Q3UGR5)"}, "[21]": {"target": "Glutamine amidotransferase-like class 1 domain-containing protein 3A, mitochondrial (Mus musculus) (UniProt Q9D172)"}, "[22]": {"target": "Ran GTPase-activating protein 1 (Mus musculus) (UniProt P46061)"}, "[23]": {"target": "Fatty acid-binding protein, adipocyte (Mus musculus) (UniProt P04117)"}, "[24]": {"target": "DnaJ homolog subfamily B member 12 (Mus musculus) (UniProt Q9QYI4)", "sequence (Q9QYI4 whole entry)": "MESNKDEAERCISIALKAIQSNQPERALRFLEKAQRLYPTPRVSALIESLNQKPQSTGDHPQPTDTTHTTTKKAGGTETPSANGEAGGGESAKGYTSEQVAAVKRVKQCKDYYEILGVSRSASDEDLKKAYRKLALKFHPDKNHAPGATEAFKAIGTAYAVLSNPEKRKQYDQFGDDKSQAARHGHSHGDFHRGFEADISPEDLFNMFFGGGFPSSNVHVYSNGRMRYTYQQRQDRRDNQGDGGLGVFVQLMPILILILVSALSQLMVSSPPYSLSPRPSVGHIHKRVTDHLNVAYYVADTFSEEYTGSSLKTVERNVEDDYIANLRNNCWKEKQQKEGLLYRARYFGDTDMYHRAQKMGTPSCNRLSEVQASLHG"}, "[25]": {"target": "ATP-sensitive inward rectifier potassium channel 11 (Mus musculus) (UniProt Q61743)"}, "[26]": {"target": "Triggering receptor expressed on myeloid cells 2 (Mus musculus) (UniProt Q99NH8)"}, "[27]": {"target": "Popeye domain-containing protein 2 (Mus musculus) (UniProt Q9ES82)", "sequence (Q9ES82 whole entry, the tested form may be a part)": "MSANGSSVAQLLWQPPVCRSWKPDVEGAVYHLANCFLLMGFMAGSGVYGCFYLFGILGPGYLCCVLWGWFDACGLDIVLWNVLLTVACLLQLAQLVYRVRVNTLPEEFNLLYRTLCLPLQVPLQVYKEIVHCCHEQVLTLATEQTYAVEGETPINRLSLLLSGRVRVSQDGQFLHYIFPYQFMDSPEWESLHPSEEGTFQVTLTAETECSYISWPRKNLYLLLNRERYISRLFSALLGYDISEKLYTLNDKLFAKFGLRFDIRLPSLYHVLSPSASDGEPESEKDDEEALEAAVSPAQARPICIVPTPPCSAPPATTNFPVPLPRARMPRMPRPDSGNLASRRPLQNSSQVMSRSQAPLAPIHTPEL"}, "[28]": {"target": "Acetyl-CoA acetyltransferase, mitochondrial (Mus musculus) (UniProt Q8QZT1)", "sequence (Q8QZT1 31-424 limits assumed)": "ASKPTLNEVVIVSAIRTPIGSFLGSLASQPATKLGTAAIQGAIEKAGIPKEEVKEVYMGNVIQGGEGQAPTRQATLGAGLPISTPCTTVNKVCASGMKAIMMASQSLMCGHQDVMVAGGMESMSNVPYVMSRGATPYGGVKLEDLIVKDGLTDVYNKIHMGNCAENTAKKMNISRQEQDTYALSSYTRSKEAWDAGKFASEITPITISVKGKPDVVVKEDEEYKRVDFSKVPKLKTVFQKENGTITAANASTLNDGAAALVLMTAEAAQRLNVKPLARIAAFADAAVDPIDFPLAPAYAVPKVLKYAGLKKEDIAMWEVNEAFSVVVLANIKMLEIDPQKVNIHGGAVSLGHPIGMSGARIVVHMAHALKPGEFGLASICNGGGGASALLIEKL"}, "[29]": {"target": "U1 small nuclear ribonucleoprotein 70 kDa (Mus musculus) (UniProt Q62376)"}, "[30]": {"target": "Glutamate dehydrogenase 1, mitochondrial (Mus musculus) (UniProt P26443)", "sequence (P26443 54-558 limits assumed)": "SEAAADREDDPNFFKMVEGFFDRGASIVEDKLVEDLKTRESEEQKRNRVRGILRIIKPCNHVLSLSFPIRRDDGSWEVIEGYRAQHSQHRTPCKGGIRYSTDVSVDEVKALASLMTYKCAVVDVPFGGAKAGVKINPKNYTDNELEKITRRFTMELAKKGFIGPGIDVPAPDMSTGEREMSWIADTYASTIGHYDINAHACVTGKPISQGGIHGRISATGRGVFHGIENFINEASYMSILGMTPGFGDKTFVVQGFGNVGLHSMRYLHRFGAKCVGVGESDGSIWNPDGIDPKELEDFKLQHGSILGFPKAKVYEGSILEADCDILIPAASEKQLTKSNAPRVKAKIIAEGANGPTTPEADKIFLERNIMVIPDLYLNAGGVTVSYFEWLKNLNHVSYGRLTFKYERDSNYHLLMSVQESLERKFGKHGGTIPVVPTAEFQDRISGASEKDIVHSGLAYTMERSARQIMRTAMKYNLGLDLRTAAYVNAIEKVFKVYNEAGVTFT"}, "[31]": {"target": "Sulfide:quinone oxidoreductase, mitochondrial (Mus musculus) (UniProt Q9R112)"}, "[32]": {"target": "Multidrug resistance-associated protein 1 (Mus musculus) (UniProt O35379)"}, "[33]": {"target": "Dual specificity mitogen-activated protein kinase kinase 3 (Mus musculus) (UniProt O09110)", "sequence (O09110 whole entry)": "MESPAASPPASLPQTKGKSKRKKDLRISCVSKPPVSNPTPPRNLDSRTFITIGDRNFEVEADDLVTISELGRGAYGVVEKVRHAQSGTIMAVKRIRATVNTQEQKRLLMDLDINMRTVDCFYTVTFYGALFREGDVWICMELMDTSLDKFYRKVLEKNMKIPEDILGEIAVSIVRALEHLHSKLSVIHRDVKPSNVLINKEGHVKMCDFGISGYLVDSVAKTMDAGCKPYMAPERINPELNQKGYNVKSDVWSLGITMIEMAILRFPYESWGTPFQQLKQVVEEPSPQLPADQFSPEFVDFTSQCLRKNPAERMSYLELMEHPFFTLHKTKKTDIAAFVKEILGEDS"}, "[34]": {"target": "Casein kinase II subunit alpha (Mus musculus) (UniProt Q60737)"}, "[35]": {"target": "Nuclear speckle splicing regulatory protein 1 (Mus musculus) (UniProt Q5NCR9)"}, "[36]": {"target": "Long-chain specific acyl-CoA dehydrogenase, mitochondrial (Mus musculus) (UniProt P51174)"}, "[37]": {"target": "BAG family molecular chaperone regulator 2 (Mus musculus) (UniProt Q91YN9)", "sequence (Q91YN9 2-210 limits assumed)": "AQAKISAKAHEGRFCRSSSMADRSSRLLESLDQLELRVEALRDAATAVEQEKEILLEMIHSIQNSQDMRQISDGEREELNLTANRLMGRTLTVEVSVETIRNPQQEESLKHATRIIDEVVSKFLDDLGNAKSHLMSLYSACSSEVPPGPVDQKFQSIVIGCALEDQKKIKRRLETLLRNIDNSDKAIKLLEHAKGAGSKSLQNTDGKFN"}, "[38]": {"target": "Ferrochelatase, mitochondrial (Mus musculus) (UniProt P22315)"}}, "data": [{"substance": "human BVES fused with 3xHA tag (from UniProt Q8NE79 1-360)", "values": [{"measurement": "AAV9-BVES-HA (IP-MS count)", "setting": "[1]", "result": 4}, {"measurement": "AAV9-BVES-HA (IP-MS count)", "setting": "[2]", "result": 2}, {"measurement": "AAV9-BVES-HA (IP-MS count)", "setting": "[3]", "result": 4}, {"measurement": "AAV9-BVES-HA (IP-MS count)", "setting": "[4]", "result": 3}, {"measurement": "AAV9-BVES-HA (IP-MS count)", "setting": "[5]", "result": 2}, {"measurement": "AAV9-BVES-HA (IP-MS count)", "setting": "[6]", "result": 2}, {"measurement": "AAV9-BVES-HA (IP-MS count)", "setting": "[7]", "result": 2}, {"measurement": "AAV9-BVES-HA (IP-MS count)", "setting": "[8]", "result": 2}, {"measurement": "AAV9-BVES-HA (IP-MS count)", "setting": "[9]", "result": 31}, {"measurement": "AAV9-BVES-HA (IP-MS count)", "setting": "[10]", "result": 3}, {"measurement": "AAV9-BVES-HA (IP-MS count)", "setting": "[11]", "result": 27}, {"measurement": "AAV9-BVES-HA (IP-MS count)", "setting": "[12]", "result": 5}, {"measurement": "AAV9-BVES-HA (IP-MS count)", "setting": "[13]", "result": 2}, {"measurement": "AAV9-BVES-HA (IP-MS count)", "setting": "[14]", "result": 3}, {"measurement": "AAV9-BVES-HA (IP-MS count)", "setting": "[15]", "result": 2}, {"measurement": "AAV9-BVES-HA (IP-MS count)", "setting": "[16]", "result": 2}, {"measurement": "AAV9-BVES-HA (IP-MS count)", "setting": "[17]", "result": 13}, {"measurement": "AAV9-BVES-HA (IP-MS count)", "setting": "[18]", "result": 2}, {"measurement": "AAV9-BVES-HA (IP-MS count)", "setting": "[19]", "result": 2}, {"measurement": "AAV9-BVES-HA (IP-MS count)", "setting": "[20]", "result": 3}, {"measurement": "AAV9-BVES-HA (IP-MS count)", "setting": "[21]", "result": 4}, {"measurement": "AAV9-BVES-HA (IP-MS count)", "setting": "[22]", "result": 2}, {"measurement": "AAV9-BVES-HA (IP-MS count)", "setting": "[23]", "result": 2}, {"measurement": "AAV9-BVES-HA (IP-MS count)", "setting": "[24]", "result": 2}, {"measurement": "AAV9-BVES-HA (IP-MS count)", "setting": "[25]", "result": 4}, {"measurement": "AAV9-BVES-HA (IP-MS count)", "setting": "[26]", "result": 2}, {"measurement": "AAV9-BVES-HA (IP-MS count)", "setting": "[27]", "result": 29}, {"measurement": "AAV9-BVES-HA (IP-MS count)", "setting": "[28]", "result": 5}, {"measurement": "AAV9-BVES-HA (IP-MS count)", "setting": "[29]", "result": 2}, {"measurement": "AAV9-BVES-HA (IP-MS count)", "setting": "[30]", "result": 6}, {"measurement": "AAV9-BVES-HA (IP-MS count)", "setting": "[31]", "result": 3}, {"measurement": "AAV9-BVES-HA (IP-MS count)", "setting": "[32]", "result": 2}, {"measurement": "AAV9-BVES-HA (IP-MS count)", "setting": "[33]", "result": 3}, {"measurement": "AAV9-BVES-HA (IP-MS count)", "setting": "[34]", "result": 2}, {"measurement": "AAV9-BVES-HA (IP-MS count)", "setting": "[35]", "result": 2}, {"measurement": "AAV9-BVES-HA (IP-MS count)", "setting": "[36]", "result": 4}, {"measurement": "AAV9-BVES-HA (IP-MS count)", "setting": "[37]", "result": 6}, {"measurement": "AAV9-BVES-HA (IP-MS count)", "setting": "[38]", "result": 2}]}]}
